The values that follow come from patent US20050164345A1, “Synthesis of human procollagens and collagens in recombinant DNA systems” (priority 1992, published 2005).

Data set [1] can be described thus: protease digestion and thermal stability of recombinant type II human collagen from insect cells. The format is physicochemical. The following applies: expressed in recombinant insect cells. The protocol: Purification and analysis of Collagen Types I and II. Collagens types I and II were purified as described supra.
The thermal stability of the recombinant type II human collagen expressed from the recombinant insect cells was measured and compared with native type I human collagen. […] The Tm of the recombinant type II collagen was up to about 40° C.

The subject of the next data set is prolyl 4-hydroxylase. The experiment in a line: Km values of prolyl 4-hydroxylase, assay based on decarboxylation of 2-oxo[1-14C]glutarate. Type of data set: biochemical, human. The following applies: other substrates held constant. How it is done: When the time course of protein expression was examined, Sf9 cells infected with recombinant viruses were labeled with [^35S]methionine (10 μCi/μl; Amersham; 1 Ci=[…]) for 2 hours at various time points between 24 and 50 hours after infection and collected for analysis by SDS/10% PAGE. To determine the maximal accumulation of recombinant protein, cells were harvested at various times from 24 to 96 hours after infection and analyzed on by SDS/10% PAGE. Both the 0.1% Triton X-100- and 1% SDS-soluble fractions of the cells were analyzed. Prolyl 4-hydroxylase activity was assayed by a method based on the decarboxylation of 2-oxo[1-^14C^−]glutarate (Kivirikko et al., Methods in Enzymology 82: 245-304 (1982)). The Km values were determined by varying the concentrations of one substrate in the presence of fixed concentration of the second, while the concentrations of the other substrates were held constant (Myllyla et al., Eur. J. Biochem. 80: 349-357 (1977)). Protein disulfide-isomerase activity of the β subunit was measured by glutathione: insulin transhydrogenase assay (Carmichael et al., J. Biol. Chem. 252: 7163-7167 (1977)). Western blot analysis was performed using a monoclonal antibody, 5B5, to the β subunit of human prolyl 4-hydroxylase (Hoyhtya et al., Eur. J. Biochem. 141: 477-482 (1984)). Prolyl 4-hydroxylase was purified by a procedure consisting of poly (L-proline) affinity chromatography, DEAE-cellulose chromatography, and gel filtration (Kivirikko et al., Methods in Enzymology 144: 96-114 (1987)).
Table 2 presented data on the enzymic activity of the recombinant enzyme. The Km values were determined by varying the concentration of one substrate in the presence of fixed concentrations of the second while the concentration of the other substrates were held constant.

A short description of data set [2]: CD spectrum analysis of purified recombinant type III collagen. Type of data set: physicochemical. The protocol: Type III procollagen was expressed in High Five cells cultured either as monolayers or in suspension in shaker flasks. The cells were harvested 72 h after infection, homogenized in a buffer containing 0.1% Triton X-100 and centrifuged, and the supernatant of the cell homogenate was passed through a DEAE cellulose column to remove nucleic acids. The flow through fractions containing the type III procollagen were pooled and digested with pepsin. This converted the type III procollagen to type III collagen and digested most of the noncollagenous proteins. The type III collagen was then concentrated by salt precipitation, solubilized and treated with pepsin as above. The type III collagen was finally separated from pepsin and other remaining contaminants by gel filtration on a Sephacryl S 500-HR column. The fractions containing the type III collagen were pooled, dialyzed and lyophilized. The purified type III collagen was analyzed by 5% SDS-PAGE under reducing (FIG. 9, lane 2) and nonreducing (FIG. 9, lane 3) conditions. […] Amino acid and CD spectrum analysis were performed on the purified type III collagen. The amino acid composition of the recombinant type III obtained corresponded well with the amino acid composition reported for human type III collagen. […] The melting temperature of the recombinant type III collagen determined by CD spectrum analysis was 40° C.

Data set [3] can be described thus: thermal stability of type III collagen produced in insect cells, trypsin/chymotrypsin digestion after heating to various temperatures. Type of data set: physicochemical. The protocol: Other aliquots were studied by a radioimmuno-assay for the trimeric N-propeptide of human type III procollagen (Farmos Diagnostica) and a colorimetric method for 4-hydroxyproline (Kivirikko et al., Anal. Biochem. 19: 249-255 (1967)). Still further aliquots were digested with pepsin for 1 h at 22° C. (Bruckner et al., Anal. Biochem. 110: 360-368 (1981)), and the thermal stability of the pepsin-resistant recombinant type III collagen was measured by rapid digestion with a mixture of trypsin and chymotrypsin.
The thermal stability of the type III collagen expressed under different cell culture conditions was studied by using digestion with a mixture of trypsin and chymotrypsin after heating to various temperatures (Bruckner, et al., Anal. Biochem. 110: 360-368 (1981)). High Five cells were infected with viruses coding for the proα1 (III) chains and the a and β subunits of human prolyl 4-hydroxylase. The cells were harvested 72 h after infection, homogenized in a buffer containing 0.2% Triton X-100 and centrifuged. In these experiments, ascorbate was either added daily to the cell culture medium as usual or omitted during the infection. The Triton X-100 soluble proteins were first digested with pepsin for 1 h at 22° C. to convert type III procollagen to type III collagen (Pihlajaniemi et al., EMBO J. 6: 643-649 (1987)), and the trypsin/chymotrypsin digestion was then performed for aliquots of the pepsin-treated samples. The samples were then electrophoresed on 8% SDS-PAGE and analyzed by Coomassie staining. FIG. 11 provides the results of this thermal stability for a variety of collagen products. As set forth in panel A, the cells were infected only with the virus coding for the proα1 (III) chains, and ascorbate was omitted from the culture medium; panel B, the cells were infected only with the virus coding for the proα1 (III) chains, and ascorbate was present in the culture medium as usually; panel C, the cells were coinfected with viruses coding for the proα1 (III) chains, and the α and β subunits of prolyl 4-hydroxylase, but ascorbate was omitted from the culture medium; and panel D, the cells were infected with the three viruses, and ascorbate was present in the culture medium. […] The arrows show the position of the α1 (III) chains. […] (FIG. 11A). […] In contrast, when the proα1 (III) chains were produced in the presence of both prolyl 4-hydroxylase and ascorbate, the Tm of type III collagen was increased considerably, being at about 38-40° C. (FIG. 11D).

[4] abbreviates: substrate 2-oxoglutarate, read-out: Km value, 2-oxoglutarate.
Where [5] appears, read: substrate (Pro—Pro-Gly)10, read-out: Km value, (Pro—Pro-Gly)10.
Setting [6] is: substrate Fe^+2, read-out: Km value, Fe^+2.
Setting [7] is: substrate ascorbate, read-out: Km value, ascorbate.

Read-outs that look alike come from different tables or passages of the source.

As to “recombinant type II collagen: recombinant type II human collagen expressed from recombinant insect cells”, in data set [1], the “Tm of the recombinant type II collagen” value was “up to 40 °C”; the “trypsin and chymotrypsin digestion” value is “resistance to trypsin and chymotrypsin digestion”.
As usually defined, the Km is the substrate concentration at which the rate is half of its maximum. Consider “α582β2: recombinant human prolyl 4-hydroxylase tetramer from Sf9 cells infected with α58 virus and β virus”, for which the Michaelis constant (Km) in the data set on prolyl 4-hydroxylase (setting [4]) was 22 µM; in the data set with prolyl 4-hydroxylase (setting [5]) it was 18 µM; in the data set with prolyl 4-hydroxylase (setting [6]), 4 µM; in the data set on prolyl 4-hydroxylase (setting [7]), 330 µM.
Take “α592β2: recombinant human prolyl 4-hydroxylase tetramer from Sf9 cells infected with α59 virus and β virus”: the Km in the data set on prolyl 4-hydroxylase (setting [4]) amounted to 25 µM; with prolyl 4-hydroxylase (setting [5]) it was 18 µM; in the data set with prolyl 4-hydroxylase (setting [6]) it was 4 µM; in the data set with prolyl 4-hydroxylase (setting [7]), 330 µM.
Regarding “recombinant type III collagen: recombinant human type III collagen produced in insect cells, pepsin-converted from type III procollagen”, the “Tm of the triple helices by CD spectra compared with authentic type III collagen” value in data set [2] (purified human type III collagen produced in insect cells) is “virtually identical”. For the same molecule, the “melting temperature determined by CD spectrum analysis” value in data set [2] (purified type III collagen from High Five cells) worked out at 40 °C. Besides, the “effect on the thermal stability” value in data set [3] (High Five cells, either ascorbate or prolyl 4-hydroxylase present without the other (FIG. 11B and 11C)) is “virtually no increasing effect”. The “Tm of type III collagen” value in data set [3] (High Five cells, proα1 (III) chains expressed without prolyl 4-hydroxylase and ascorbate (FIG. 11A)) was 32-34 °C; in data set [3] (High Five cells, proα1 (III) chains produced in the presence of both prolyl 4-hydroxylase and ascorbate (FIG. 11D)), 38-40 °C.

B1: proα1 chains of type III procollagen: type III procollagen expressed in insect cells without recombinant prolyl 4-hydroxylase (protein, UniProt P02461 24-1466, looked up)
pro-form: QQEAVEGGCSHLGQSYADRDVWKPEPCQICVCDSGSVLCDDIICDDQELDCPNPEIPFGECCAVCPQPPTAPTRPPNGQGPQGPKGDPGPPGIPGRNGDPGIPGQPGSPGSPGPPGICESCPTGPQNYSPQYDSYDVKSGVAVGGLAGYPGPAGPPGPPGPPGTSGHPGSPGSPGYQGPPGEPGQAGPSGPPGPPGAIGPSGPAGKDGESGRPGRPGERGLPGPPGIKGPAGIPGFPGMKGHRGFDGRNGEKGETGAPGLKGENGLPGENGAPGPMGPRGAPGERGRPGLPGAAGARGNDGARGSDGQPGPPGPPGTAGFPGSPGAKGEVGPAGSPGSNGAPGQRGEPGPQGHAGAQGPPGPPGINGSPGGKGEMGPAGIPGAPGLMGARGPPGPAGANGAPGLRGGAGEPGKNGAKGEPGPRGERGEAGIPGVPGAKGEDGKDGSPGEPGANGLPGAAGERGAPGFRGPAGPNGIPGEKGPAGERGAPGPAGPRGAAGEPGRDGVPGGPGMRGMPGSPGGPGSDGKPGPPGSQGESGRPGPPGPSGPRGQPGVMGFPGPKGNDGAPGKNGERGGPGGPGPQGPPGKNGETGPQGPPGPTGPGGDKGDTGPPGPQGLQGLPGTGGPPGENGKPGEPGPKGDAGAPGAPGGKGDAGAPGERGPPGLAGAPGLRGGAGPPGPEGGKGAAGPPGPPGAAGTPGLQGMPGERGGLGSPGPKGDKGEPGGPGADGVPGKDGPRGPTGPIGPPGPAGQPGDKGEGGAPGLPGIAGPRGSPGERGETGPPGPAGFPGAPGQNGEPGGKGERGAPGEKGEGGPPGVAGPPGGSGPAGPPGPQGVKGERGSPGGPGAAGFPGARGLPGPPGSNGNPGPPGPSGSPGKDGPPGPAGNTGAPGSPGVSGPKGDAGQPGEKGSPGAQGPPGAPGPLGIAGITGARGLAGPPGMPGPRGSPGPQGVKGESGKPGANGLSGERGPPGPQGLPGLAGTAGEPGRDGNPGSDGLPGRDGSPGGKGDRGENGSPGAPGAPGHPGPPGPVGPAGKSGDRGESGPAGPAGAPGPAGSRGAPGPQGPRGDKGETGERGAAGIKGHRGFPGNPGAPGSPGPAGQQGAIGSPGPAGPRGPVGPSGPPGKDGTSGHPGPIGPPGPRGNRGERGSEGSPGHPGQPGPPGPPGAPGPCCGGVGAAAIAGIGGEKAGGFAPYYGDEPMDFKINTDEIMTSLKSVNGQIESLISPDGSRKNPARNCRDLKFCHPELKSGEYWVDPNQGCKLDAIKVFCNMETGETCISANPLNVPRKHWWTDSSAEKKHVWFGESMDGGFQFSYGNPELPEDVLDVHLAFLRLLSSRASQNITYHCKNSIAYMDQASGNVKKALKLMGSNEGEFKAEGNSKFTYTVLEDGCTKHTGEWSKTVFEYRTRKAVRLPIVDIAPYDIGGPDQEFGVDVGPVCFL
modifications: pro-form
notes: type III procollagen expressed in insect cells without recombinant prolyl 4-hydroxylase
For B1, in data set [3] (insect cells, without recombinant prolyl 4-hydroxylase), the “Tm of the triple helices, lower than procollagen produced in the presence of recombinant prolyl 4-hydroxylase” value was “about 6 °C”.
